Assay results: PMC9405553, “G-Quadruplex Formed by the Promoter Region of the hTERT Gene: Structure-Driven Effects on DNA Mismatch Repair Functions”

Legend:
[1] = target: T1, ecMutS (Escherichia coli, UniProt P23909 1-853); experiment: EMSA; ecMutS: 20 mM HEPES-KOH pH 7.9, 5 mM MgCl2, 120 mM KCl, 0.5 mg/mL BSA, 1 mM ADP, 37 C 15 min, 5 nM DNA; ecMutL/ngMutL: 20 mM HEPES pH 8.0, 100 mM KCl, 0.5 mg/mL BSA, 1 mM DTT, on ice 10 min, 20 nM DNA; gels in TAE at 4 C; settings: protein: recombinant; tags: N-terminal His6; chain copies: 2; text says bottom strand; blunt, one T:G mismatch at strand 1 position 22
T1 sequence: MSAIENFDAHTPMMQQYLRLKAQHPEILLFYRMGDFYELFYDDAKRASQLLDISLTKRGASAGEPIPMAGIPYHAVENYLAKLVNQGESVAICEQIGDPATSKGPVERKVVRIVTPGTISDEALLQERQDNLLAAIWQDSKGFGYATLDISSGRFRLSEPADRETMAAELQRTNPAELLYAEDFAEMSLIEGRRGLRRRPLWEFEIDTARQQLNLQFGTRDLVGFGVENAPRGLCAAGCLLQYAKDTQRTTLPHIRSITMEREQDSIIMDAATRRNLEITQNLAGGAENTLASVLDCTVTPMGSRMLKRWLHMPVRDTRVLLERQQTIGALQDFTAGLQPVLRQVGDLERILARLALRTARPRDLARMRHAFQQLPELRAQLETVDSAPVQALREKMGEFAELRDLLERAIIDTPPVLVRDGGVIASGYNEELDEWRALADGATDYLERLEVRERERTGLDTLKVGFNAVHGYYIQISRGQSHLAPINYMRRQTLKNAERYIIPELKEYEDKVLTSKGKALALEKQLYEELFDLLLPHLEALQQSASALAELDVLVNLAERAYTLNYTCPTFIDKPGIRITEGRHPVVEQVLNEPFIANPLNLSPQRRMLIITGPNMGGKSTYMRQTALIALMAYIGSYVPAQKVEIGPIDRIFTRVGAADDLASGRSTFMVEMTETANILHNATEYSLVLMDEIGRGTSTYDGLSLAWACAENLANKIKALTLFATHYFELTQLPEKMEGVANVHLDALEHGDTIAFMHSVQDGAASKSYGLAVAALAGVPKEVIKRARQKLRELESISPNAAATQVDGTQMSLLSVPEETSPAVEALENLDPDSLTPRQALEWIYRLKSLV

[2] = target: T2, ngMutL (Neisseria gonorrhoeae (FA 1090 in Fig. …, UniProt Q5F8M6 1-658)); experiment: as above; settings: protein: recombinant, tags: N-terminal His6, chain copies: 2
T2 sequence: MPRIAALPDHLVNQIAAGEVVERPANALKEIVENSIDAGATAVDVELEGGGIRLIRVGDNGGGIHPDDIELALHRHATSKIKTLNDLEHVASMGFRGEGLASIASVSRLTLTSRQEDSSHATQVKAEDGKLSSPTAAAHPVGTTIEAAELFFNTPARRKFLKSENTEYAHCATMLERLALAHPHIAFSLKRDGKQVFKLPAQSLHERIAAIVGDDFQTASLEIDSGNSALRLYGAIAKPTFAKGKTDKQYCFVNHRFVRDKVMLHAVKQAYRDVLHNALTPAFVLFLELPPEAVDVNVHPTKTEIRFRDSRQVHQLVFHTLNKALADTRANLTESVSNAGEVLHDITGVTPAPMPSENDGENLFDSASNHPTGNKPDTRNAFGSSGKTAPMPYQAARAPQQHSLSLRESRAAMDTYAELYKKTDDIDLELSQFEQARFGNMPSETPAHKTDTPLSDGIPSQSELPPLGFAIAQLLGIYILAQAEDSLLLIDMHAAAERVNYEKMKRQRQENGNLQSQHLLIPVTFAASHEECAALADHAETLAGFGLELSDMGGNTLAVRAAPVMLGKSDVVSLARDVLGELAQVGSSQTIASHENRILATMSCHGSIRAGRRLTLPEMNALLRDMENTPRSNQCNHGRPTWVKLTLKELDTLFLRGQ

[3] = target: ecMutL (Escherichia coli (K12 in Fig. S2 legend), UniProt P23367 1-615); experiment: as above; settings: protein: recombinant, tags: N-terminal His6, chain copies: 2
Chain of ecMutL (P23367 whole entry): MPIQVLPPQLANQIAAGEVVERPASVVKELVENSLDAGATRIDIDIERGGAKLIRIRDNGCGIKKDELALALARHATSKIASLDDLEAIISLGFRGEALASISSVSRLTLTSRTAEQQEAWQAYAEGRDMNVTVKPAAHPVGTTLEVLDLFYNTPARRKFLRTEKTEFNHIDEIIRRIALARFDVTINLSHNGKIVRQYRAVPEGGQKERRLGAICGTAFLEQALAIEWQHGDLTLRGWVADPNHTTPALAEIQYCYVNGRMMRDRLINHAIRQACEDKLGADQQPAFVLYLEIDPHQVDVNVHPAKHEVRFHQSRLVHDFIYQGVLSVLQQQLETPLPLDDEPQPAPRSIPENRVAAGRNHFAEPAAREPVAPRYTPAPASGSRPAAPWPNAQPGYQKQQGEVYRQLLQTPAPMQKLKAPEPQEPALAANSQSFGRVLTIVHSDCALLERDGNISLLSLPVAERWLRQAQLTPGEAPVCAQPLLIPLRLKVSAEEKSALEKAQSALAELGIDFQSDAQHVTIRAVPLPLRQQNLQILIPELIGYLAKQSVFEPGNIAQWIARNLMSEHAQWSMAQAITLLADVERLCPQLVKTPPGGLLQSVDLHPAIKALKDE

[4] = target: T1, ecMutS; experiment: EMSA; 1 mM ADP, 5 mM MgCl2; ecMutS: 20 mM HEPES-KOH pH 7.9, 5 mM MgCl2, 120 mM KCl, 0.5 mg/mL BSA, 1 mM ADP, 37 C 15 min, 5 nM DNA; ecMutL/ngMutL: 20 mM HEPES pH 8.0, 100 mM KCl, 0.5 mg/mL BSA, 1 mM DTT, on ice 10 min, 20 nM DNA; gels in TAE at 4 C; settings: protein: recombinant, tags: N-terminal His6, chain copies: 2
[5] = target: T1, ecMutS; experiment: competition; vs ds76-G/T-3', 65 nM ecMutS dimer; ecMutS: 20 mM HEPES-KOH pH 7.9, 5 mM MgCl2, 120 mM KCl, 0.5 mg/mL BSA, 1 mM ADP, 37 C 15 min, 5 nM DNA; ecMutL/ngMutL: 20 mM HEPES pH 8.0, 100 mM KCl, 0.5 mg/mL BSA, 1 mM DTT, on ice 10 min, 20 nM DNA; gels in TAE at 4 C; settings: protein: recombinant; tags: N-terminal His6; chain copies: 2; label: none; three stacked parallel intramolecular G4s
[6] = text says 5' for ecMutS assays, single parallel intramolecular G4
[7] = label: 5'-TAMRA, three stacked parallel intramolecular G4s
[8] = label: 3'-TAMRA, three stacked parallel intramolecular G4s

B1: ds76-G/T-3' (dsDNA)
DNA 1: ATAGGACGCTGACACTGGTGCTTGGCAGCTGAGCCATATGCTCGAGTAACGCTCATAGGATCCAAGCGCGAAAGGA
DNA 2: TCCTTTCGCGCTTGGATCCTATGAGCGTTACTCGAGCATATGGCTCAGCTGCCAGGCACCAGTGTCAGCGTCCTAT
[1]
  Kd: 35 ± 3 nM

B2: 95G4 (structured_DNA)
DNA: ATAGGACGCTGACACTGGTGCTTGGCAGCTGAGCCATATTTGGGTGGGTGGGTGGGTTGCTCGAGTAACGCTCATAGGATCCAAGCGCGAAAGGA
[2]; [6]
  Kd: 41 ± 1 nM
[3]; [6]
  Kd: 120 ± 20 nM
[4]; [6]
  Kd: 38 ± 5 nM

B3: ds96/96* (dsDNA)
DNA 1: ACCTGGATGCCTATAGGGCGAATTGGGTACCGCTGAATTGCACTGGACTTGATCCTCGATGATCCTAAGCTAAGCTTCAGCTCCAGCCTAAGCCTG
DNA 2: CAGGCTTAGGCTGGAGCTGAAGCTTAGCTTAGGATCATCGAGGATCGAGTCCGGTGCAATTCAGCGGTACCCAATTCGCCCTATAGGCATCCAGGT
[2]; label: 3'-TAMRA on strand 1, blunt
  Kd: 125 ± 5 nM

B4: WT-5' (structured_DNA)
DNA: GCCGCGGAAAGGAAGGGGAGGGGCTGGGAGGGCCCGGAGGGGGCTGGGCCGGGGACCCGGGAGGGGTCGGGACGGGGCGGGGTCCGCGCGGAGGAG
[3]; [7]
  Kd: 115 ± 30 nM
[4]; [7]
  Kd: 15 ± 6 nM

B5: G242,243A-3' (structured_DNA)
DNA: GCCGCGGAAAGGAAGGGGAGGGGCTGGGAGGGCCCGGAGGGGGCTGGGCCGGAAACCCGGGAGGGGTCGGGACGGGGCGGGGTCCGCGCGGAGGAG
[2]; [8]
  Kd: 51 ± 2 nM

B6: G228A-3' (structured_DNA)
DNA: GCCGCGGAAAGGAAGGGGAGGGGCTGGGAGGGCCCGGAAGGGGCTGGGCCGGGGACCCGGGAGGGGTCGGGACGGGGCGGGGTCCGCGCGGAGGAG
[2]; [8]
  Kd: 44 ± 3 nM

B7: WT-3' (structured_DNA)
DNA: GCCGCGGAAAGGAAGGGGAGGGGCTGGGAGGGCCCGGAGGGGGCTGGGCCGGGGACCCGGGAGGGGTCGGGACGGGGCGGGGTCCGCGCGGAGGAG
[2]; [8]
  Kd: 49 ± 3 nM

B8: WT (structured_DNA)
DNA: GCCGCGGAAAGGAAGGGGAGGGGCTGGGAGGGCCCGGAGGGGGCTGGGCCGGGGACCCGGGAGGGGTCGGGACGGGGCGGGGTCCGCGCGGAGGAG
[5]
  IC50: 32 ± 3 nM
  Ki: 28 ± 5 nM

B9: G250A-3' (structured_DNA)
DNA: GCCGCGGAAAGGAAGGGGAGGGGCTGGGAGGGCCCGGAGGGGGCTGGGCCGGGGACCCGGAAGGGGTCGGGACGGGGCGGGGTCCGCGCGGAGGAG
[2]; [8]
  Kd: 42 ± 2 nM

B10: G250A-5' (structured_DNA)
DNA: GCCGCGGAAAGGAAGGGGAGGGGCTGGGAGGGCCCGGAGGGGGCTGGGCCGGGGACCCGGAAGGGGTCGGGACGGGGCGGGGTCCGCGCGGAGGAG
[3]; [7]
  Kd: 130 ± 30 nM
[4]; [7]
  Kd: 30 ± 7 nM

B11: G242,243A (unlabeled) (structured_DNA)
DNA: GCCGCGGAAAGGAAGGGGAGGGGCTGGGAGGGCCCGGAGGGGGCTGGGCCGGAAACCCGGGAGGGGTCGGGACGGGGCGGGGTCCGCGCGGAGGAG
[5]
  IC50: 28 ± 7 nM
  Ki: 25 ± 8 nM

B12: G250A (unlabeled) (structured_DNA)
DNA: GCCGCGGAAAGGAAGGGGAGGGGCTGGGAGGGCCCGGAGGGGGCTGGGCCGGGGACCCGGAAGGGGTCGGGACGGGGCGGGGTCCGCGCGGAGGAG
[5]
  IC50: 40 ± 15 nM
  Ki: 35 ± 15 nM

B13: G228A-5' (structured_DNA)
DNA: GCCGCGGAAAGGAAGGGGAGGGGCTGGGAGGGCCCGGAAGGGGCTGGGCCGGGGACCCGGGAGGGGTCGGGACGGGGCGGGGTCCGCGCGGAGGAG
[3]; [7]
  Kd: 170 ± 40 nM
[4]; [7]
  Kd: 24 ± 6 nM

B14: G242,243A-5' (structured_DNA)
DNA: GCCGCGGAAAGGAAGGGGAGGGGCTGGGAGGGCCCGGAGGGGGCTGGGCCGGAAACCCGGGAGGGGTCGGGACGGGGCGGGGTCCGCGCGGAGGAG
[3]; [7]
  Kd: 110 ± 20 nM
[4]; [7]
  Kd: 27 ± 4 nM

B15: G228A (unlabeled) (structured_DNA)
DNA: GCCGCGGAAAGGAAGGGGAGGGGCTGGGAGGGCCCGGAAGGGGCTGGGCCGGGGACCCGGGAGGGGTCGGGACGGGGCGGGGTCCGCGCGGAGGAG
[5]
  IC50: 35 ± 4 nM
  Ki: 31 ± 6 nM
